Tests used:
[1] = biological target: human LINGO-1 expressed on CHO-K1 cells (CHO-K1-hLINGO-1) (human) (UniProt Q96FE5); experiment: apparent KD, FACS saturation binding on CHO-K1-hLINGO-1 cells, Fab format
[2] = biological target: T1, human LINGO-2 expressed on CHO-K1 cells (CHO-K1-hLINGO-2) (human, UniProt Q7L985 26-606); experiment: apparent KD, FACS saturation binding on CHO-K1-hLINGO-2 cells, Fab format
T1 construct: range 26-606; not shown: 2 amino acid residue linker
T1 sequence (looked up): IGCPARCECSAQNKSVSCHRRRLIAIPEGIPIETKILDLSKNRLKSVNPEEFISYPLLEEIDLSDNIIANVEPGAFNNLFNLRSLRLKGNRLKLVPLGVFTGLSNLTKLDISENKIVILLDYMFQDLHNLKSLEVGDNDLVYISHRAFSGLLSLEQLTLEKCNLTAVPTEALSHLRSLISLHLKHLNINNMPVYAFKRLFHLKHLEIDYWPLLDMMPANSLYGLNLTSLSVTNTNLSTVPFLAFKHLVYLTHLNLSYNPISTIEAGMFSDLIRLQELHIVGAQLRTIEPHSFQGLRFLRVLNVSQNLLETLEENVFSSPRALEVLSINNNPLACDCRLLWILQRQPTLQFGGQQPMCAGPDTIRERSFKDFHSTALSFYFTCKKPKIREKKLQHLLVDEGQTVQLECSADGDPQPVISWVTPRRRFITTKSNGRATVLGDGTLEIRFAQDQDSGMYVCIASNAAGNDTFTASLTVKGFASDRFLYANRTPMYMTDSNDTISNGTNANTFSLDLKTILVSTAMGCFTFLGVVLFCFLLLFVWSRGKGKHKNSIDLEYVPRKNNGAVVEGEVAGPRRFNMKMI

[3] = biological target: T2, human LINGO-1-ΔLRR-Fc (Igleader-hsLINGO-1-ΔLRR-Fc) (human, UniProt Q96FE5 40-556); experiment: ELISA, Fc fusion captured via goat anti-human IgG Fc, Fab detected with AP-conjugated secondary and AttoPhos
T2 construct: Heterologous secretion signal left out; also called human LINGO-1 lacking the LRR domain
T2 sequence: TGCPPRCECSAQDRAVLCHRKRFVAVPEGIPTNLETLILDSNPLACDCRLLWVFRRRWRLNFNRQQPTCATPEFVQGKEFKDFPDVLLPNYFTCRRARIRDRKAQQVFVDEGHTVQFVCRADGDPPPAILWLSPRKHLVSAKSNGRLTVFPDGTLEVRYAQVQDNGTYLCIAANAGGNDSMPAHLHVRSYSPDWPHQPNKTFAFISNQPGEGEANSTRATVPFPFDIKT

[4] = biological target: T3, human NgR-Fc fusion protein (R&D Systems) (human, UniProt Q9BZR6 27-447, limits assumed); experiment: as above
T3 construct: Commercial protein; also called captured human NgR-Fc; not shown: Fc part of the commercial fusion protein; not described
T3 sequence (looked up): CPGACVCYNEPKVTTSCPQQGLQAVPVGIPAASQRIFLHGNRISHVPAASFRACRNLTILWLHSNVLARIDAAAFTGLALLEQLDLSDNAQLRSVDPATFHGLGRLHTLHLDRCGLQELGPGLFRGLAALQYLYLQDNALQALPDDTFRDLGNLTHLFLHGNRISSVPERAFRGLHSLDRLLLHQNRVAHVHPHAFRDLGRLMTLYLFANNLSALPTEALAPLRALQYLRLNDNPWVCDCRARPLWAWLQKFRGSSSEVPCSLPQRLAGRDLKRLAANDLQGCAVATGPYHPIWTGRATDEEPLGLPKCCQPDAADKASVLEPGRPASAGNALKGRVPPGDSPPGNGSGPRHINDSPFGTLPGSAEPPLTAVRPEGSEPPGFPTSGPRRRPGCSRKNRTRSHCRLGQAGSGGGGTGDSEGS

[5] = biological target: T4, human LINGO-1-Fc fusion protein (natleader-hsLINGO-1-Fc) (human, UniProt Q96FE5 42-556); experiment: as above
T4 construct: also called human recombinant LINGO-1-Fc; captured human LINGO-1-Fc; not shown: protein lette
T4 sequence: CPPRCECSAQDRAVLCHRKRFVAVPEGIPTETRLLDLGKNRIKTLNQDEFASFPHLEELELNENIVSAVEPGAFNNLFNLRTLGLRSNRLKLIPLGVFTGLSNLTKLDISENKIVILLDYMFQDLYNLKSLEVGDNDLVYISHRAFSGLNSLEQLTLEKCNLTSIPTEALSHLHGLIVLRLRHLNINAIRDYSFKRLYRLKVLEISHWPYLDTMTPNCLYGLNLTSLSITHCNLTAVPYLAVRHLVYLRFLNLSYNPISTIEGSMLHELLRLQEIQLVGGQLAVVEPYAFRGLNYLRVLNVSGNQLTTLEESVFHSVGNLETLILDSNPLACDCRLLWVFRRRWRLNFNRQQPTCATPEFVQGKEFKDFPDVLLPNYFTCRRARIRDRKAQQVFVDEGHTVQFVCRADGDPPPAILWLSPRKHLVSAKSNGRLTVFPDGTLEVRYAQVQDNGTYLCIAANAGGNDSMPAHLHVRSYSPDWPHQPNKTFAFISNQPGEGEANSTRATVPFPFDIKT

B1: anti-LINGO-1 Fab 4785 (Fab, V domains shown)
VH: QVQLQQSGPGLVKPSQTLSLTCAISGDSVSDNSAAWSWIRQSPGRGLEWLGLIYLRSKWDNDYAVSVKSRITINPDTSKNQFSLQLNSVTPEDTAVYYCARTGRADEFDVWGQGTLVTVSS
VL: DIVLTQPPSVSGAPGQRVTISCSGSSSNIGNNYVSWYQQLPGTAPKLLISRNSKRPSGVPDRFSGSKSGTSASLAITGLQSEDEADYYCSTYDTFSIVFGGGTKLTVLG
Kd [1]: 0.35 nM
Kd [2]: 1.21 nM
relative fluorescence units (RFU) [3]: 8 RFU
relative fluorescence units (RFU) [4]: 7 RFU
relative fluorescence units (RFU) [5]: 113 RFU
